From publication PMC7470129, “Synthesis and structure-activity relationships of cerebroside analogues as substrates of cerebroside sulphotransferase and discovery of a competitive inhibitor” (Journal of Enzyme Inhibition and Medicinal Chemistry, 2020)

T1: galactosylceramide (cerebroside) sulphotransferase (CST) (Homo sapiens, UniProt Q99999)
T1 construct: gene GAL3ST1
T1 sequence (Q99999 1-423): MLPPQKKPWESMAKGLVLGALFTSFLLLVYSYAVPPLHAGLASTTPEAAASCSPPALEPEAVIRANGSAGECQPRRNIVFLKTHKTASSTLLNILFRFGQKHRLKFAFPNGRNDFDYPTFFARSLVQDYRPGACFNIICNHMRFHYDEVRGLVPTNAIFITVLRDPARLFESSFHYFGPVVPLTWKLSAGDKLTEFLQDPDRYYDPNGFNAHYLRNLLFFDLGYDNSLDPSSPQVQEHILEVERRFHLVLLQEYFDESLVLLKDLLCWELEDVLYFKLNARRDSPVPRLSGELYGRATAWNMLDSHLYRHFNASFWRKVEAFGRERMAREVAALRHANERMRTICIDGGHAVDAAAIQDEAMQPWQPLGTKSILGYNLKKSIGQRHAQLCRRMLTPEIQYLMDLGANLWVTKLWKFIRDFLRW


How the values were obtained:
Test in all cases: capillary electrophoresis enzyme assay, Michaelis-Menten kinetics (Km)
[1] = biological target: T1, galactosylceramide (cerebroside) sulphotransferase (CST); assay type: biochemical
[2] = substrate: CCCCCCCCCCCCCCCCCCC(=O)N[C@@H](CO[C@H]1O[C@H](CO)[C@H](O)[C@H](O)[C@H]1O)[C@H](O)[C@H](O)CCCCCCCCCCCCCC; assay type: biochemical, Homo sapiens; conditions: PAPS
[3] = substrate: CCCCCCCCCCCCCC[C@@H](O)[C@@H](O)[C@H](CO[C@H]1O[C@H](CO)[C@H](O)[C@H](O)[C@H]1O)NC(=O)CCCC; assay type: biochemical, Homo sapiens; conditions: PAPS

| Km [1] [µM] | Molecule | Km [2] [µM] | Vmax [2] [µmol/min/mg] | Km [3] [µM] | Vmax [3] [µmol/min/mg] |
| --- | --- | --- | --- | --- | --- |
| 438 | CCCCCCCCCCCCCCCCCCCCCCCCCC(=O)N[C@@H](CO[C@H]1O[C@H](CO)[C@H](O)[C@H](O)[C@H]1O)[C@H](O)[C@H](O)CCCCCCCCCCCCCC [compound 18, KRN7000] |  |  |  |  |
| 550 | CCCCCCCCCCCCCCCCCCCCCCCCCC(=O)N[C@@H](CO[C@@H]1O[C@H](CO)[C@H](O)[C@H](O)[C@H]1O)[C@H](O)[C@H](O)CCCCCCCCCCCCCC [compound 10, β-KRN7000] |  |  |  |  |
|  | galactosylceramide (cerebroside) sulphotransferase (CST) (Homo sapiens) (protein) MLPPQKKPWESMAKGLVLGALFTSFLLLVYSYAVPPLHAGLASTTPEAAASCSPPALEPEAVIRANGSAGECQPRRNIVFLKTHKTASSTLLNILFRFGQKHRLKFAFPNGRNDFDYPTFFARSLVQDYRPGACFNIICNHMRFHYDEVRGLVPTNAIFITVLRDPARLFESSFHYFGPVVPLTWKLSAGDKLTEFLQDPDRYYDPNGFNAHYLRNLLFFDLGYDNSLDPSSPQVQEHILEVERRFHLVLLQEYFDESLVLLKDLLCWELEDVLYFKLNARRDSPVPRLSGELYGRATAWNMLDSHLYRHFNASFWRKVEAFGRERMAREVAALRHANERMRTICIDGGHAVDAAAIQDEAMQPWQPLGTKSILGYNLKKSIGQRHAQLCRRMLTPEIQYLMDLGANLWVTKLWKFIRDFLRW | 521 | 0.0519 | 358 | 0.0449 |
